In patent publication US20170240645A1 (Genentech, published 2017):

Assays:
[1] = target: T1, PMEL17 N-terminal deletion mutant Δ100 (human, UniProt P40967 101-661); experiment: immunoblot of cell lysates
T1 construct: the real construct lacks the N-terminal part; Tested in cell lysates by immunoblot
T1 sequence: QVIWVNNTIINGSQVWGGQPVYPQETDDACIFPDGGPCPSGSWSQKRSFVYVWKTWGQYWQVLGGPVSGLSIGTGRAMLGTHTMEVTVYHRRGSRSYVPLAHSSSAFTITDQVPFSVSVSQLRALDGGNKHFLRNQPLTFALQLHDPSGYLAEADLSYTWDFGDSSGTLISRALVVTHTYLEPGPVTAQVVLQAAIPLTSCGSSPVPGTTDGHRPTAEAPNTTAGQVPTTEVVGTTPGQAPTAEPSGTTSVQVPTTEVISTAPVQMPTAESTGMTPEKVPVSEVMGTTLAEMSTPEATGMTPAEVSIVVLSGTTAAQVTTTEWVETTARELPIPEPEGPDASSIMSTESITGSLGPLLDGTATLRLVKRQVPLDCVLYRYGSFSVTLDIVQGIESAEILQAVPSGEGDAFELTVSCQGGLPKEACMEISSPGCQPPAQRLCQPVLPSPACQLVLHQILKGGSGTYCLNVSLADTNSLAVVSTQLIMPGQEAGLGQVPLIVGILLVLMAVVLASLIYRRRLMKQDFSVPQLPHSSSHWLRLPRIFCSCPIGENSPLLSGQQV

[2] = target: T2, PMEL17 N-terminal deletion mutant Δ255 (human, UniProt P40967 256-661); experiment: immunoblot of cell lysates
T2 construct: the real construct lacks the N-terminal part; Tested in cell lysates by immunoblot
T2 sequence: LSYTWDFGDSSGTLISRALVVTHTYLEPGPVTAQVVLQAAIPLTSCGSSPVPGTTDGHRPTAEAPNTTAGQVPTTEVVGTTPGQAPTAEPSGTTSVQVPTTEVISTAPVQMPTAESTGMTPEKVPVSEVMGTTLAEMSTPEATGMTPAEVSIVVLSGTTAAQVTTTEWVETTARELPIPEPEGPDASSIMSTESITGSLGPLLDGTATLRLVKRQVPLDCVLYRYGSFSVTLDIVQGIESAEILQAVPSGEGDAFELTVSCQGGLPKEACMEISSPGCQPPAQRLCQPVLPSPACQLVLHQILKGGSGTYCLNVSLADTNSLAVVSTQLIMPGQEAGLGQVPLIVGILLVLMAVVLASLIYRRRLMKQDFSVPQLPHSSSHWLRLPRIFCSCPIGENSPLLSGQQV

[3] = target: T3, cynomolgus monkey PMEL17 with an N-terminal gD tag (cynomolgus monkey, UniProt P40967 25-661 (human entry)); experiment: FACS, 293S cells stably transfected with gD tagged PMEL17, 10 µg/ml 17A9
T3 construct: On stably transfected 293S cells; also called N-terminal gD tagged PMEL17 (cynomolgus monkey)
T3 chain: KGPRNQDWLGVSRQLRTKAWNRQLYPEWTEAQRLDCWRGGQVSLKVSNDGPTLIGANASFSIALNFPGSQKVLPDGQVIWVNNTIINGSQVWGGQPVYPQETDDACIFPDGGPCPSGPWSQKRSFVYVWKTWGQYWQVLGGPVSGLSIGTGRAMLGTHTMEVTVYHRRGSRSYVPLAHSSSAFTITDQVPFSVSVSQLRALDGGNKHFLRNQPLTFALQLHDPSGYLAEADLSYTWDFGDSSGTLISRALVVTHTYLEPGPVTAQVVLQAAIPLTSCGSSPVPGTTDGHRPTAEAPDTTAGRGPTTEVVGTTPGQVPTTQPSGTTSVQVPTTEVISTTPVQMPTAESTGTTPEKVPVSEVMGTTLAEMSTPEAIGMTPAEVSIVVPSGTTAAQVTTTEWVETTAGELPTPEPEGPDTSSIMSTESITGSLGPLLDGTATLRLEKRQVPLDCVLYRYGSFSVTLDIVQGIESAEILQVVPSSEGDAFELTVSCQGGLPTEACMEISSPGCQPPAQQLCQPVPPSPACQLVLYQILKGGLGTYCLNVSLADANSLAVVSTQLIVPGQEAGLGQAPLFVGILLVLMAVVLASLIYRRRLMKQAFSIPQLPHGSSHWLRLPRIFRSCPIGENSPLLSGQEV
Description: (§1) Antibody 17A9 was tested to determine if it cross-reacts with PMEL17 from species other than human. […] All of the sequences include the signal sequence except for the cynomolgus monkey PMEL17. Residues that are identical among all four species are indicated by asterisks (*). In the region where the rat sequence has a deletion, residues that are identical among the remaining three species are indicated by a plus (+). Binding to each species of PMEL17 was determined by FACS analysis using 293S cells stably transfected with an N-terminal gD tagged PMEL17 (human, cynomolgus monkey, rat, or mouse PMEL17); stained with 10 μg/ml 17A9 antibody; and detected with R-Phycoerythrin conjugated goat anti-mouse antibody.

[4] = target: T4, mouse PMEL17 with an N-terminal gD tag (mouse, UniProt Q60696 26-626); experiment: as above
T4 construct: On stably transfected 293S cells; also called N-terminal gD tagged PMEL17 (mouse)
T4 sequence: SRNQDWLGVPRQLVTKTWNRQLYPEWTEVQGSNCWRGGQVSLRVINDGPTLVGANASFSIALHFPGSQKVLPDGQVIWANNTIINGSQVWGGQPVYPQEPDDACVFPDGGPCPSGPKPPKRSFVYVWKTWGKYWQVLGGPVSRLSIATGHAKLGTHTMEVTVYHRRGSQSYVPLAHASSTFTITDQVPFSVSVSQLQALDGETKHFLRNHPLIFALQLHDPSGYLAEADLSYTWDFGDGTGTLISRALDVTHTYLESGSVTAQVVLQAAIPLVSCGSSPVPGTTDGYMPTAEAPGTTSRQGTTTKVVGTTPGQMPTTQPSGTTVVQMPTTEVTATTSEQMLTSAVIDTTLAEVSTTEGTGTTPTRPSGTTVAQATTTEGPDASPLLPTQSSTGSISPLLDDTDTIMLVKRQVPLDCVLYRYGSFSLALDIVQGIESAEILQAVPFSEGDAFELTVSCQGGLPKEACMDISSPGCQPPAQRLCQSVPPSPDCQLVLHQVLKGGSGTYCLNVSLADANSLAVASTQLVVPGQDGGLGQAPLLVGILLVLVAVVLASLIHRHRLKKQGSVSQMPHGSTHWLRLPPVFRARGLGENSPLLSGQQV
Description: as §1

- binding result [1]: no binding
- binding result [2]: no binding
- binding result [3]: binds
- binding result [4]: binds
B1: 17A9 (antibody, V domains shown)
VH: EVQLQQSGPELVKPGASMKISCKSSGYSFTRYTMNWVKQSHGKNLEWIGVINPYNGGTVYNQKFKGKATLTVDKSSSTAYMELLSLTSEDSAVYYCARTDYDGYAMDYWGQGTSVTVSS
VL: DVQITQSPSYLAASPGETITINCRATKSISKYLAWYQEQPGKTNNLLIYSGSTLQSGIPSRFSGSGSGTDFTLTISSLEPEDFAMYYCQQHNEYPYTFGSGTKLEIK
notes: Mouse monoclonal antibody from a hybridoma (mice immunized with PMEL17 ECD-Fc); also called anti-PMEL17 antibody 17A9
